The Km is the substrate concentration at which the rate is half of its maximum. For orientation: kcat means the number of substrate molecules converted per active site and unit of time at saturation. By kcat/Km is commonly meant the turnover number divided by the Michaelis constant.

What all share (assay): colorimetric DTNB acetylation assay, Michaelis-Menten
Holding throughout (conditions): 1.5 mM MVNALE peptide, 30 °C, reaction buffer pH 7.5

Substrate in data set [1]: CC(=O)SCCNC(=O)CCNC(=O)[C@H](O)C(C)(C)COP(=O)(O)OP(=O)(O)OC[C@H]1O[C@@H](n2cnc3c(N)ncnc32)[C@H](O)[C@@H]1OP(=O)(O)O
The format is biochemical, Thermochaetoides thermophila. The text has this: colorimetric DTNB acetylation assay, Michaelis-Menten on CtNaa50_82-289 (GNAT)

Substrate in data set [2]: CC(=O)SCCNC(=O)CCNC(=O)[C@H](O)C(C)(C)COP(=O)(O)OP(=O)(O)OC[C@H]1O[C@@H](n2cnc3c(N)ncnc32)[C@H](O)[C@@H]1OP(=O)(O)O
The format is biochemical, Thermochaetoides thermophila. The text has this:
colorimetric DTNB acetylation assay, Michaelis-Menten on CtNaa50_82-445 (ΔN)
The source holds these as a separate data set.

Substrate in data set [3]: CC(=O)SCCNC(=O)CCNC(=O)[C@H](O)C(C)(C)COP(=O)(O)OP(=O)(O)OC[C@H]1O[C@@H](n2cnc3c(N)ncnc32)[C@H](O)[C@@H]1OP(=O)(O)O
In kind it is biochemical, Neurospora crassa. The text has this:
colorimetric DTNB acetylation assay, Michaelis-Menten on NcNaa50_93-287 (GNAT)

Substrate in data set [4]: CC(=O)SCCNC(=O)CCNC(=O)[C@H](O)C(C)(C)COP(=O)(O)OP(=O)(O)OC[C@H]1O[C@@H](n2cnc3c(N)ncnc32)[C@H](O)[C@@H]1OP(=O)(O)O
The format is biochemical, Thermochaetoides thermophila. The source holds these as a separate data set.

Substrate in data set [5]: CC(=O)SCCNC(=O)CCNC(=O)[C@H](O)C(C)(C)COP(=O)(O)OP(=O)(O)OC[C@H]1O[C@@H](n2cnc3c(N)ncnc32)[C@H](O)[C@@H]1OP(=O)(O)O
The format is biochemical, Thermochaetoides thermophila. The text has this:
colorimetric DTNB acetylation assay, Michaelis-Menten on CtNaa50_1-289 (ΔC)
This is another data set of the same source.

B1: CtNaa50_82-289 (GNAT) (Thermochaetoides thermophila DSM 1495) (protein)
chain: LPSGASIVPLAQEHIPALRRINSLLLPVAYPDSFYHKALDPLASGLFSRAILWQDTNADPPKVVGGLICRLEPNPFLSVTGEPTPVQLPADQPQRAPQAPKDTPFHAIYIQSLALLSPYRSLGLAAAALDHIIATAAVLPAAGSNIDARTIYAHVWTENEEGLKWYESRGFVKEGGEPVKGYYFKLRPDTAWIVRRHIGESAKLNDVV
notes: GNAT domain, residues 82-289, C-terminal His6 kept, E. coli; full-length 445 residues; one molecule per asymmetric unit
For B1, in data set [1], the Km was found to be 52.7 ± 8.6 µM, the kcat was 0.607 ± 0.03 s⁻¹ and the kcat/Km was 11500 ± 2000 M⁻¹ s⁻¹.

B2: CtNaa50_82-289 (GNAT) (Thermochaetoides thermophila DSM 1495; H235A) (protein)
chain: LPSGASIVPLAQEHIPALRRINSLLLPVAYPDSFYHKALDPLASGLFSRAILWQDTNADPPKVVGGLICRLEPNPFLSVTGEPTPVQLPADQPQRAPQAPKDTPFHAIYIQSLALLSPYRSLGLAAAALDHIIATAAVLPAAGSNIDARTIYAAVWTENEEGLKWYESRGFVKEGGEPVKGYYFKLRPDTAWIVRRHIGESAKLNDVV
notes: as for B1
For B2, in data set [1], the Km turned out to be 15.3 ± 3.1 µM, the kcat is 0.0233 ± 0.00167 s⁻¹ and the kcat/Km came to 1500 ± 333 M⁻¹ s⁻¹.

B3: CtNaa50_82-289 (GNAT) (Thermochaetoides thermophila DSM 1495; Y190F) (protein)
chain: LPSGASIVPLAQEHIPALRRINSLLLPVAYPDSFYHKALDPLASGLFSRAILWQDTNADPPKVVGGLICRLEPNPFLSVTGEPTPVQLPADQPQRAPQAPKDTPFHAIFIQSLALLSPYRSLGLAAAALDHIIATAAVLPAAGSNIDARTIYAHVWTENEEGLKWYESRGFVKEGGEPVKGYYFKLRPDTAWIVRRHIGESAKLNDVV
notes: as for B1
As to B3, in data set [1], the Km worked out at 22.0 ± 4.0 µM, the kcat was found to be 0.0933 ± 0.005 s⁻¹ and the kcat/Km worked out at 4330 ± 833 M⁻¹ s⁻¹.

B4: CtNaa50_82-445 (ΔN) (Thermochaetoides thermophila DSM 1495) (protein)
chain: LPSGASIVPLAQEHIPALRRINSLLLPVAYPDSFYHKALDPLASGLFSRAILWQDTNADPPKVVGGLICRLEPNPFLSVTGEPTPVQLPADQPQRAPQAPKDTPFHAIYIQSLALLSPYRSLGLAAAALDHIIATAAVLPAAGSNIDARTIYAHVWTENEEGLKWYESRGFVKEGGEPVKGYYFKLRPDTAWIVRRHIGESAKLNDVVSQPQPQPQQQLQQQPAVDIAPTATSVLAAAVNLPPITSTPPPPSTGSKLPTSNTSTLASRPPPPLRSTSSSTSSATSLSYQNTRPPTEWNDIPPDMVAGPPIAARGRRVTAAAASDPAANGCSGTGSGASSRSASAAAGTGKKRKGRDYPTAAFGN
notes: N-terminal deletion, residues 82-445, E. coli
Consider B4, for which, in data set [2], the Km is given as 41.2 ± 6.1 µM, the kcat amounted to 0.398 ± 0.0167 s⁻¹ and the kcat/Km was 9670 ± 1500 M⁻¹ s⁻¹.

B5: NcNaa50_93-287 (GNAT) (Neurospora crassa OR74A) (protein)
chain: SQANIVAVAEHHIAALRRINSLLLQVAYPDAFYAKVLEPLASGLFSRVILWSDDPTSEPKVIGGVVCRLEPNPFLDPNGQPQAPRIQQNQPGPSAPIDYPYHAIYIQSLALLSPYRSLGLAAAALEHIIASASILPAAGSTINVRTIYAHVWTENEEGLQWYGQRGFRTEGRDPVRGYYFKLRPDTAWIVRRDIG
notes: GNAT domain, residues 93-287, C-terminal His6, E. coli; full-length 494 residues
For B5, in data set [3], the Km is given as 146.9 ± 12.1 µM, the kcat worked out at 1.6 ± 0.05 s⁻¹ and the kcat/Km turned out to be 10800 ± 1000 M⁻¹ s⁻¹.

B6: CtNaa50_1-289/CtDLC1 complex (Thermochaetoides thermophila DSM 1495) (protein)
chain: MSASRQASIKSFFQPRGLPTHNTTFSSKTPPTDRATQTTTPPPVPPPAPAPPSHQPAAPEPITISVRLPPGGVPNLPSPPSLPSGASIVPLAQEHIPALRRINSLLLPVAYPDSFYHKALDPLASGLFSRAILWQDTNADPPKVVGGLICRLEPNPFLSVTGEPTPVQLPADQPQRAPQAPKDTPFHAIYIQSLALLSPYRSLGLAAAALDHIIATAAVLPAAGSNIDARTIYAHVWTENEEGLKWYESRGFVKEGGEPVKGYYFKLRPDTAWIVRRHIGESAKLNDVV
notes: CtNaa50 1-289 (S. cerevisiae, His-tag cut by TEV) co-purified with untagged CtDLC1 (E. coli); with putative dynein light chain 1 protein
Consider B6, for which, in data set [4], the Km worked out at 30.4 ± 6.3 µM and the kcat worked out at 0.357 ± 0.02 s⁻¹.

B7: CtNaa50_1-289 (ΔC) (Thermochaetoides thermophila DSM 1495) (protein)
chain: MSASRQASIKSFFQPRGLPTHNTTFSSKTPPTDRATQTTTPPPVPPPAPAPPSHQPAAPEPITISVRLPPGGVPNLPSPPSLPSGASIVPLAQEHIPALRRINSLLLPVAYPDSFYHKALDPLASGLFSRAILWQDTNADPPKVVGGLICRLEPNPFLSVTGEPTPVQLPADQPQRAPQAPKDTPFHAIYIQSLALLSPYRSLGLAAAALDHIIATAAVLPAAGSNIDARTIYAHVWTENEEGLKWYESRGFVKEGGEPVKGYYFKLRPDTAWIVRRHIGESAKLNDVV
notes: C-terminal deletion, residues 1-289, N-terminal His-tag removed by TEV, S. cerevisiae
As to B7, in data set [5], the Km is reported as 31.9 ± 4.4 µM, the kcat was determined as 0.272 ± 0.01 s⁻¹ and the kcat/Km was 8500 ± 1170 M⁻¹ s⁻¹.
